{"source": "paper PMC5626786", "origin": "cited, not measured here", "molecular_target": "Ark1p peptide (Saccharomyces cerevisiae) (UniProt P53974)", "sequence (P53974 whole entry)": "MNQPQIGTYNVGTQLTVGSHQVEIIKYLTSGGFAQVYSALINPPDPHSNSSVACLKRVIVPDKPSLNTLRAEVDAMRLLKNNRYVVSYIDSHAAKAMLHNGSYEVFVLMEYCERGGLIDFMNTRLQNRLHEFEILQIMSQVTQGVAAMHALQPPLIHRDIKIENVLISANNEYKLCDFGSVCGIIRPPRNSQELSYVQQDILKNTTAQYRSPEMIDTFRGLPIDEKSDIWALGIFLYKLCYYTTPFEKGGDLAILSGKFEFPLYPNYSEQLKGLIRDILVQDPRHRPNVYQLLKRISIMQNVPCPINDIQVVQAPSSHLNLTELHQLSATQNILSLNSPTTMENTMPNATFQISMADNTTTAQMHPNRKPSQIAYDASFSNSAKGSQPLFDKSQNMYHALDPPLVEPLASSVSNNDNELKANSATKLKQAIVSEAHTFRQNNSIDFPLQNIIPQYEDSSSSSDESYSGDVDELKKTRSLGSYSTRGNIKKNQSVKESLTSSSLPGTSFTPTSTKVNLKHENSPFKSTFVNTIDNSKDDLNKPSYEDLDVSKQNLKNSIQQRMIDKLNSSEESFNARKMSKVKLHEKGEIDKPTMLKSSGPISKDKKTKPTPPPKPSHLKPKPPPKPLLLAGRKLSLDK", "data": [{"substance": "Abp1p SH3 (from UniProt P15891)", "values": [{"measurement": "Kd", "result": 4.4, "unit": "µM"}]}]}
